Measurements: paper PMC11984658 (Journal of structural biology, 2024)

Columns and labels:
SEC-MALS = target: the molecule itself; experiment: SEC-MALS
SAXS = target: the molecule itself; experiment: SAXS

Protein	stoichiometry N (SEC-MALS) [subunits]	stoichiometry N (SAXS) [subunits]
RAD52(1–212) (domain or fragment, human, UniProt P43351 1-212, looked up) MSGTEEAILGGRDSHPAAGGGSVLCFGQCQYTAEEYQAIQKALRQRLGPEYISSRMAGGGQKVCYIEGHRVINLANEMFGYNGWAHSITQQNVDFVDLNNGKFYVGVCAFVRVQLKDGSYHEDVGYGVSEGLKSKALSLEKARKEAVTDGLKRALRSFGNALGNCILDKDYLRSLNKLPRQLPLEVDLTKAKRQDLEPSVEEARYNSCRPNM	9.7	10
RAD52(1–303) (domain or fragment, human, UniProt P43351 1-303, looked up) MSGTEEAILGGRDSHPAAGGGSVLCFGQCQYTAEEYQAIQKALRQRLGPEYISSRMAGGGQKVCYIEGHRVINLANEMFGYNGWAHSITQQNVDFVDLNNGKFYVGVCAFVRVQLKDGSYHEDVGYGVSEGLKSKALSLEKARKEAVTDGLKRALRSFGNALGNCILDKDYLRSLNKLPRQLPLEVDLTKAKRQDLEPSVEEARYNSCRPNMALGHPQLQQVTSPSRPSHAVIPADQDCSSRSLSSSAVESEATHQRKLRQKQLQQQFRERMEKQQVRVSTPSAEKSEAAPPAPPVTHSTPVT	9.5	–
